Data: paper PMC5887372 (Nucleic Acids Research, 2018)
One block for each binder: values may come before it.

B2: DNMT1 RFTS domain (aa: 351–600) (domain or fragment)
chain: PKCIQCGQYLDDPDLKYGQHPPDAVDEPQMLTNEKLSIFDANESGFESYEALPQHKLTCFSVYCKHGHLCPIDTGLIEKNIELFFSGSAKPIYDDDPSLEGGVNGKNLGPINEWWITGFDGGEKALIGFSTSFAEYILMDPSPEYAPIFGLMQEKIYISKIVVEFLQSNSDSTYEDLINKIETTVPPSGLNLNRFTEDSLLRHAQFVVEQVESYDEAGDSDEQPIFLTPCMRDLIKLAGVTLGQRRAQAR
B4: DNMT1 RFTS domain E397A (domain or fragment)
chain: PKCIQCGQYLDDPDLKYGQHPPDAVDEPQMLTNEKLSIFDANESGFASYEALPQHKLTCFSVYCKHGHLCPIDTGLIEKNIELFFSGSAKPIYDDDPSLEGGVNGKNLGPINEWWITGFDGGEKALIGFSTSFAEYILMDPSPEYAPIFGLMQEKIYISKIVVEFLQSNSDSTYEDLINKIETTVPPSGLNLNRFTEDSLLRHAQFVVEQVESYDEAGDSDEQPIFLTPCMRDLIKLAGVTLGQRRAQAR
B5: DNMT1 RFTS domain E384A (domain or fragment)
chain: PKCIQCGQYLDDPDLKYGQHPPDAVDEPQMLTNAKLSIFDANESGFESYEALPQHKLTCFSVYCKHGHLCPIDTGLIEKNIELFFSGSAKPIYDDDPSLEGGVNGKNLGPINEWWITGFDGGEKALIGFSTSFAEYILMDPSPEYAPIFGLMQEKIYISKIVVEFLQSNSDSTYEDLINKIETTVPPSGLNLNRFTEDSLLRHAQFVVEQVESYDEAGDSDEQPIFLTPCMRDLIKLAGVTLGQRRAQAR

Legend:
ubiquitin [1] = target: T1, ubiquitin (UniProt P0CG48 1-76); test: NMR titration
ubiquitin [2] = target: T1, ubiquitin; test: ITC
DNMT1 RFTS domain Y399G = DNMT1 RFTS domain Y399G (human, UniProt P26358 351-600, Y399G); test: ITC
DNMT1 RFTS domain I442G = DNMT1 RFTS domain I442G (human, UniProt P26358 351-600, I442G); test: ITC
DNMT1 RFTS domain E397A = target: B4; test: ITC
[3] = target: DNMT1 RFTS domain E384A/E397A (human, UniProt P26358 351-600, E384A | E397A); test: ITC
DNMT1 RFTS domain E384A = target: B5; test: ITC
[4] = target: B2; test: ITC

- binding result (ubiquitin [1]): binds
B1: DNMT1_351 (aa: 351–1616) (domain or fragment)
chain: PKCIQCGQYLDDPDLKYGQHPPDAVDEPQMLTNEKLSIFDANESGFESYEALPQHKLTCFSVYCKHGHLCPIDTGLIEKNIELFFSGSAKPIYDDDPSLEGGVNGKNLGPINEWWITGFDGGEKALIGFSTSFAEYILMDPSPEYAPIFGLMQEKIYISKIVVEFLQSNSDSTYEDLINKIETTVPPSGLNLNRFTEDSLLRHAQFVVEQVESYDEAGDSDEQPIFLTPCMRDLIKLAGVTLGQRRAQARRQTIRHSTREKDRGPTKATTTKLVYQIFDTFFAEQIEKDDREDKENAFKRRRCGVCEVCQQPECGKCKACKDMVKFGGSGRSKQACQERRCPNMAMKEADDDEEVDDNIPEMPSPKKMHQGKKKKQNKNRISWVGEAVKTDGKKSYYKKVCIDAETLEVGDCVSVIPDDSSKPLYLARVTALWEDSSNGQMFHAHWFCAGTDTVLGATSDPLELFLVDECEDMQLSYIHSKVKVIYKAPSENWAMEGGMDPESLLEGDDGKTYFYQLWYDQDYARFESPPKTQPTEDNKFKFCVSCARLAEMRQKEIPRVLEQLEDLDSRVLYYSATKNGILYRVGDGVYLPPEAFTFNIKLSSPVKRPRKEPVDEDLYPEHYRKYSDYIKGSNLDAPEPYRIGRIKEIFCPKKSNGRPNETDIKIRVNKFYRPENTHKSTPASYHADINLLYWSDEEAVVDFKAVQGRCTVEYGEDLPECVQVYSMGGPNRFYFLEAYNAKSKSFEDPPNHARSPGNKGKGKGKGKGKPKSQACEPSEPEIEIKLPKLRTLDVFSGCGGLSEGFHQAGISDTLWAIEMWDPAAQAFRLNNPGSTVFTEDCNILLKLVMAGETTNSRGQRLPQKGDVEMLCGGPPCQGFSGMNRFNSRTYSKFKNSLVVSFLSYCDYYRPRFFLLENVRNFVSFKRSMVLKLTLRCLVRMGYQCTFGVLQAGQYGVAQTRRRAIILAAAPGEKLPLFPEPLHVFAPRACQLSVVVDDKKFVSNITRLSSGPFRTITVRDTMSDLPEVRNGASALEISYNGEPQSWFQRQLRGAQYQPILRDHICKDMSALVAARMRHIPLAPGSDWRDLPNIEVRLSDGTMARKLRYTHHDRKNGRSSSGALRGVCSCVEAGKACDPAARQFNTLIPWCLPHTGNRHNHWAGLYGRLEWDGFFSTTVTNPEPMGKQGRVLHPEQHRVVSVRECARSQGFPDTYRLFGNILDKHRQVGNAVPPPLAKAIGLEIKLCMLAKARESASAKIKEEEAAKD

Binder: B2
- Kd (ubiquitin [2]): 26 µM

- binding result (DNMT1 RFTS domain Y399G): binds
- binding result (DNMT1 RFTS domain I442G): binds
- binding result (DNMT1 RFTS domain E397A): binds
- binding result [3]: binds
- binding result (DNMT1 RFTS domain E384A): binds
- Kd [4]: 41.3 µM
B3: UHRF1 UBL domain (aa: 1–76) (domain or fragment)
chain: MWIQVRTMDGRQTHTVDSLSRLTKVEELRRKIQELFHVEPGLQRLFYRGKQMEDGHTLFDYEVRLNDTIQLLVRQS

Binder: B4
- fold reduction of binding against wild-type RFTS (ubiquitin [2]): ~2 fold

Binder: B5
- fold reduction of binding against wild-type RFTS (ubiquitin [2]): ~2 fold
